From publication PMC2813881, “The Mrs1 Splicing Factor Binds the bI3 Group I Intron at Each of Two Tetraloop-Receptor Motifs” come the findings set out here.

For data set [1], the target named is T1, Mrs1 (yeast, UniProt P07266 1-363).
T1 sequence: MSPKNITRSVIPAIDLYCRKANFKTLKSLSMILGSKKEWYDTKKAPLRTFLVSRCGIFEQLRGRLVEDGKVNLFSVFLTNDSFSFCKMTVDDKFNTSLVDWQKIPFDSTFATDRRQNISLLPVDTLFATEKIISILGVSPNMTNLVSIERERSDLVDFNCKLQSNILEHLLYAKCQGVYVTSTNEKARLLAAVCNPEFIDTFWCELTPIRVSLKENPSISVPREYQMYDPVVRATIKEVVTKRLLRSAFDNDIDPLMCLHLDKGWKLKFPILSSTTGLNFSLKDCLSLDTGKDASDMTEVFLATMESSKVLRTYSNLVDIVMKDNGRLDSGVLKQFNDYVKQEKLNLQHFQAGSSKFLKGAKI
As to the kind of experiment: filter binding. Particulars: RNA folded in its own buffer (composition not given), 30 min at 37 C with Mrs1, SL and B5 at 8 mM MgCl2.

The target of data set [2] is T1, Mrs1. As to the kind of experiment: filter binding; 8 mM MgCl2; Hill ~1.5; Filter partitioning (nitrocellulose/Hybond), RNA folded in its own buffer (composition not given), 30 min at 37 C with Mrs1; SL and B5 at 8 mM MgCl2; RNA ~0.5 nM (large) or ~0.1 nM (SL, B5). Particulars: protein: recombinant, chain copies: 2, label: internal 32P.

In turn, Azoarcus group I intron RNA had a K half with Mrs1 [1] (Hill 1.8, Filter partitioning (nitrocellulose/Hybond)) of 3 nM.

As for RNase P specificity domain RNA, the K half with Mrs1 [1] (Hill 2.0, Filter partitioning (nitrocellulose/Hybond)) was found to be 230 nM.

With bI3 group I intron RNA, in the data set with Mrs1 [1] (Hill 2.2, Filter partitioning (nitrocellulose/Hybond)), the K half was found to be 9.7 nM.

B1: B5 RNA (structured_RNA)
RNA: GGCUGACGAAGCGGUGCAGUGCUGUUUCAGCACUGCACCGAAAAACUUCGUCAGCC
Regarding B1, the “apparent K (half saturation)” value with Mrs1 [2] (hairpin with 5 nt bulge) was roughly 500 nM.

B2: SL RNA (structured_RNA)
RNA: GGCUGACGAAGCGGUGCAGUGCUGUUUCAGCACUGCACCGCUUCGUCAGCC
B2: in the data set with Mrs1 [2] (hairpin, 24 bp), the “apparent K (half saturation)” value was determined as 1300 nM.
